The values below come from publication PMC11673460.

The target in the assay is cobalamin binding domain of CarH from Thermus thermophilus (Thermus thermophilus).

With “cobalamin binding domain of CarH from Thermus thermophilus (domain or fragment)”, the aggregation ratio (area of bacteria in aggregates/total area occupied by all bacteria) of E. coli MG1655 displaying CarH (CarH‐eCPX), with AdoB12Cy5, in the dark amounted to 50%; the aggregation ratio of CarH‐displaying E. coli with AdoB12Cy5 under green or red light (aggregates not separated by far‐red light) is under 20%; the aggregation ratio of CarH‐displaying E. coli with AdoB12Cy7.5 under green, red or far‐red light was under 20%; the aggregation ratio of CarH‐displaying E. coli with AdoB12 under green light (aggregates stable under red and far‐red light) is under 20%. The aggregation ratio of E. coli MG1655 displaying CarH (CarH‐eCPX), with AdoB12, in the dark was 50% and the aggregation ratio of E. coli MG1655 displaying CarH (CarH‐eCPX), with AdoB12Cy7.5, in the dark worked out at 50%.
